Assay results: the supplement of paper PMC9112550, “Optimization of the antimicrobial peptide Bac7 by deep mutational scanning” (BMC Biology, 2022)

System: Escherichia coli TOP10
Test: shrunken log2 fold change of peptide-encoding DNA abundance (4.5 h post-induction vs induction); higher = less antimicrobial activity (less host growth inhibition)
Conditions: time post-induction: 4.5 h; library: site-saturation at positions 5, 18, 19, 20
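Also: peptides expressed intracellularly from a pBAD plasmid library in pooled LB shake-flask culture, induced with 0.3% L-arabinose, DNA abundance read by NGS, three biological replicates, DESeq2 with apeglm shrinkage.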

| Sequence | shrunken log2 fold change |
| --- | --- |
| RRIRQRPPRLPRPRPRPVGGPRP | 2.52 |
| RRIRTRPPRLPRPRPRPDCLPRP | -0.0333 |
| RRIRIRPPRLPRPRPRPWHYPRP | -0.111 |
| RRIRYRPPRLPRPRPRPEHHPRP | -0.646 |
| RRIRFRPPRLPRPRPRPGKFPRP | 0.138 |
| RRIRKRPPRLPRPRPRPEVIPRP | -0.00256 |
| RRIRTRPPRLPRPRPRPRACPRP | 0.608 |
| RRIRHRPPRLPRPRPRPMENPRP | 0.00439 |
| RRIRARPPRLPRPRPRPYYSPRP | -0.173 |
| RRIRFRPPRLPRPRPRPHMQPRP | -0.725 |
| RRIRRRPPRLPRPRPRPFVVPRP | 0.0981 |
| RRIRNRPPRLPRPRPRPDYHPRP | 0.00923 |
| RRIRWRPPRLPRPRPRPFCSPRP | -0.0764 |
| RRIRLRPPRLPRPRPRPGWNPRP | 0.000784 |
| RRIRKRPPRLPRPRPRPFIFPRP | 0.085 |
| RRIRWRPPRLPRPRPRPWKCPRP | -0.01 |
| RRIRFRPPRLPRPRPRPEYIPRP | -0.0963 |
| RRIRKRPPRLPRPRPRPSMRPRP | 0.915 |
| RRIRKRPPRLPRPRPRPSSHPRP | -0.163 |
| RRIRYRPPRLPRPRPRPFKEPRP | -0.146 |
| RRIRCRPPRLPRPRPRPMDMPRP | 0.00534 |
| RRIRPRPPRLPRPRPRPIPTPRP | 0.00223 |
| RRIRMRPPRLPRPRPRPGMRPRP | 1.54 |

| Sequence | shrunken log2 fold change |
| --- | --- |
| RRIRHRPPRLPRPRPRPWSSPRP | -0.116 |
| RRIRNRPPRLPRPRPRPQYCPRP | -0.186 |
| RRIRARPPRLPRPRPRPVCHPRP | 0.321 |
| RRIRPRPPRLPRPRPRPAHIPRP | -0.205 |
| RRIRIRPPRLPRPRPRPTCAPRP | -0.166 |
| RRIRPRPPRLPRPRPRPFCPPRP | -0.345 |
| RRIRIRPPRLPRPRPRPMILPRP | -0.131 |
| RRIRRRPPRLPRPRPRPNSPPRP | -0.0118 |
| RRIRFRPPRLPRPRPRPHQVPRP | -0.088 |
| RRIRYRPPRLPRPRPRPEYWPRP | -0.692 |
| RRIRFRPPRLPRPRPRPHFQPRP | -0.261 |
| RRIRWRPPRLPRPRPRPPKTPRP | 0.199 |
| RRIRVRPPRLPRPRPRPRVYPRP | -0.587 |
| RRIRSRPPRLPRPRPRPARDPRP | 0.407 |
| RRIRGRPPRLPRPRPRPYSSPRP | -0.223 |
| RRIRTRPPRLPRPRPRPRIKPRP | -0.208 |
| RRIRIRPPRLPRPRPRPMFRPRP | -0.0542 |
| RRIRQRPPRLPRPRPRPEELPRP | -0.0362 |
| RRIRMRPPRLPRPRPRPQKFPRP | -0.000921 |
| RRIRMRPPRLPRPRPRPAWIPRP | 0.052 |
| RRIRSRPPRLPRPRPRPITDPRP | -0.0789 |
| RRIRNRPPRLPRPRPRPTMAPRP | 0.0535 |
| RRIRSRPPRLPRPRPRPHEAPRP | 0.0366 |

| Sequence | shrunken log2 fold change |
| --- | --- |
| RRIRPRPPRLPRPRPRPIVVPRP | -0.134 |
| RRIRFRPPRLPRPRPRPGDRPRP | 0.151 |
| RRIRMRPPRLPRPRPRPYYLPRP | -0.326 |
| RRIRERPPRLPRPRPRPREPPRP | 0.392 |
| RRIRIRPPRLPRPRPRPLMYPRP | -0.513 |
| RRIRCRPPRLPRPRPRPYHPPRP | -0.539 |
| RRIRYRPPRLPRPRPRPKPWPRP | 0.03 |
| RRIRHRPPRLPRPRPRPCCKPRP | 1.89 |
| RRIRIRPPRLPRPRPRPVHEPRP | -0.139 |
| RRIRWRPPRLPRPRPRPVSSPRP | 0.117 |
| RRIRHRPPRLPRPRPRPQKVPRP | -0.0567 |
| RRIRGRPPRLPRPRPRPIGNPRP | -0.149 |
| RRIRPRPPRLPRPRPRPEMNPRP | -0.381 |
| RRIRLRPPRLPRPRPRPFGLPRP | -0.114 |
| RRIRKRPPRLPRPRPRPGGIPRP | 0.569 |
| RRIRGRPPRLPRPRPRPVTKPRP | 0.661 |
| RRIRQRPPRLPRPRPRPQQVPRP | -0.0545 |
| RRIRIRPPRLPRPRPRPYDSPRP | -0.423 |
| RRIRKRPPRLPRPRPRPLAHPRP | 0.551 |
| RRIRIRPPRLPRPRPRPFYAPRP | -0.251 |
| RRIRWRPPRLPRPRPRPTYCPRP | -0.126 |
| RRIRVRPPRLPRPRPRPHFHPRP | 3.23 |
| RRIRTRPPRLPRPRPRPWNMPRP | -0.276 |

| Sequence | shrunken log2 fold change |
| --- | --- |
| RRIRGRPPRLPRPRPRPDKNPRP | 0.32 |
| RRIRFRPPRLPRPRPRPVVQPRP | -0.119 |
| RRIRHRPPRLPRPRPRPTAQPRP | -0.054 |
| RRIRWRPPRLPRPRPRPFAIPRP | 0.086 |
| RRIRYRPPRLPRPRPRPSKKPRP | -0.0925 |
| RRIRDRPPRLPRPRPRPVAVPRP | 0.453 |
| RRIRVRPPRLPRPRPRPNGDPRP | -0.187 |
| RRIRCRPPRLPRPRPRPIDMPRP | -0.175 |
| RRIRFRPPRLPRPRPRPDEAPRP | 0.0246 |
| RRIRRRPPRLPRPRPRPMFLPRP | 0.0789 |
| RRIRWRPPRLPRPRPRPMHCPRP | -0.0635 |
| RRIRPRPPRLPRPRPRPKPQPRP | 0.397 |
| RRIRCRPPRLPRPRPRPRQIPRP | 0.192 |
| RRIRLRPPRLPRPRPRPVYRPRP | -0.548 |
| RRIRYRPPRLPRPRPRPYVAPRP | -0.206 |
| RRIRHRPPRLPRPRPRPSMRPRP | 0.204 |
| RRIRKRPPRLPRPRPRPPNYPRP | -0.19 |
| RRIRDRPPRLPRPRPRPYQMPRP | -0.796 |
| RRIRIRPPRLPRPRPRPANEPRP | 0.158 |
| RRIRCRPPRLPRPRPRPVQIPRP | -0.0351 |
| RRIRRRPPRLPRPRPRPLTMPRP | 0.0632 |
| RRIRNRPPRLPRPRPRPCQFPRP | -0.0212 |
